B1: WASP effector-GBD peptide, histidine tagged, with engineered carboxy terminal cysteine (other, human)
chain: DIQNPDITSSRYRGLPAPGPSPADKKRSGKKKISKADIGAPSGFKHVSHVGWDPQNGFDVNNLDPDLRSLFSRAGISEAQLTDAETSKLIYDFIEDQGGLEAVRQEMRRQEPLPPPPPPSRC
notes: range 201-321; Linked covalently to maleimide plates; also called WASP-GBD; WASP-His; not shown: N-terminal histidine tag of vector pRSET-A
B2: ROCK1 effector-GBD peptide, histidine tagged, with engineered carboxy terminal cysteine (other, human)
chain: EAEQYFSTLYKTQVKELKEEIEEKNRENLKKIQELQNEKETLATQLDLAETKAESEQLARGLLEEQYFELTQESKKAASRNRQEITDKDHTVSRLEEANSMLTKDIEILRRENEELTEKMKKAEEEYKLEKEEEISNLKAAFEKNINTERTLKTQAVNKLAEIMNRKDFKIDRKKANTC
notes: range 847-1024; Linked covalently to maleimide plates through the C-terminal cysteine; also called ROCK1-GBD; ROCK-GBD; not shown: N-terminal histidine tag of vector pRSET-A
B3: ROCK-GST peptide (other)
chain: EAEQYFSTLYKTQVKELKEEIEEKNRENLKKIQELQNEKETLATQLDLAETKAESEQLARGLLEEQYFELTQESKKAASRNRQEITDKDHTVSRLEEANSMLTKDIEILRRENEELTEKMKKAEEEYKLEKEEEISNLKAAFEKNINTERTLKTQAVNKLAEIMNRKDFKIDRKKANT
notes: domain: GBD; a GST fusion of ROCK is described nowhere else; also called ROCK-GBD; RhoA effector ROCK-GBD; not shown: Glutathione S transferase tag
B4: constitutively active recombinant Cdc42, glutamine 61 to leucine, histidine tagged (enzyme)
chain: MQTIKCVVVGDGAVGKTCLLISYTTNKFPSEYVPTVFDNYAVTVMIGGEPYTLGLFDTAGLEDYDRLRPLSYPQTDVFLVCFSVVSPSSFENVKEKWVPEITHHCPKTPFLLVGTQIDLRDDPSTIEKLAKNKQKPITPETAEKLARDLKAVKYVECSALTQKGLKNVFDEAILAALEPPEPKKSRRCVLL
notes: Bought protein; also called Cdc42 (61L); constitutively active Cdc42; not shown: histidine tag
B5: PAK-GBD-GST peptide (other)
chain: KEKERPEISLPSDFEHTIHVGFDAVTGEFTGMPEQWARLLQTSNITKSEQKKNPQAVLDVLEFYNSKKTSNSQKYMSFTDKSAEC
notes: range 68-151; also called PAK1-GST; PAK-GST; not shown: Glutathione S transferase tag of vector pGEX-4T with thrombin site, N-terminal
B6: POSH effector-GBD peptide, histidine tagged (other)
chain: KHSDTKKNTKKRHSFTSLTMANKSSQASQNRHSMEISPPVLISSSNPTAAARISELSGLSCSAPSQVHISTTG
notes: range 291-363; Linked to maleimide plates through the naturally occurring cysteine at position 351; also called POSH-GBD; POSH-His; not shown: N-terminal histidine tag of vector pRSET-A
B7: rhotekin-Cys effector-GBD as tested in the G-LISA (other, mouse)
chain: ILEDLNMLYIRQMALSLEDTELQRKLDHEIRMRDGAEKLLAALSQREQALEATKSLLVSNSRILSYMGELQRRKEAQVLEKTGC
notes: range 7-89; also called modified effector-GBD; Rhotekin-Cys-no tag

What was measured:
[1] = target: B4; test: Cdc42 G-LISA, WASP-GBD on maleimide plate, detection with anti-Cdc42 ACD02, absorbance 490 nm
Procedure: (§1) Active Rho protein (typically 7-15 μg total cell lysate or 1-5 ng of constitutively active recombinant protein) were either added directly to the effector bound G-LISA plate (Rac1 and Cdc42 G-LISAs) or diluted with an equal volume of Binding Buffer (20% PEG 8000, Sigma, St. Louis, Mo.) prior to adding to effector bound plates (RhoA G-LISA). The reactions were incubated for 30 minutes at 4° .C on a microtiter titer plate shaker after which wells were washed once with 200 μl of PBST (PBS pH 7.2, 0.05% Tween-20) and immediately treated with 200 μl of Antigen Presenting Buffer (1% trichloroacetic acid (TCA)) for 2-5 minutes at room temperature. […] For RhoA and Rac1 reactions goat anti-mouse secondary at 2 μg/ml is used, for RhoA,B,C reactions donkey anti-chicken secondary at 0.5 μg/ml is used, for Cdc42 reactions goat anti-sheep secondary antibody is used at 0.5 μg/ml. After three washes each of 200 μl PBST the activated Rho proteins are detected using absorbance or luminescence detection as described below.
(§2) Referring to FIG. 2C, lysis buffer only (Blank), 5 ng of Cdc42 (61L) or Rac1 (61L) were subjected to a Cdc42 G-LISA assay as detailed in materials and methods (Example 2), and Cdc42 signal was detected by absorbance at 490 nm as described in materials and methods (Example 2).

[2] = target: T1, endogenous RhoA of human platelet extract loaded with GTPγS (human, UniProt P61586 1-190); test: RhoA G-LISA on ROCK plate, loaded platelet extracts, treatment with 10% TCA for 2 minutes, detection with clone 384, luminescence
T1 construct: also called active RhoA (GTPγS); GTPγS RhoA
Procedure: Platelet cell lysates loaded with GTPγS or GDP nucleotides (10 μg total cell lysate per assay) were diluted with an equal volume of Binding Buffer (20% PEG 8000, Sigma, St. Louis, Mo.) prior to adding to ROCK effector bound plates. The reactions were incubated for 30 minutes at 4° C. on a microtiter titer plate shaker after which wells were washed once with 200 μl of PBST (PBS pH 7.2, 0.05% Tween-20) and immediately treated with one of the following chemical/physical treatments: microwaving for 3 minutes in the presence of 200 μl PBS; microwaving for 3 minutes dry; microwaving for 3 minutes in the presence of 200 μl of 8M urea; 200 μl methanol for 2 minutes; 200 pl ethanol for 2 minutes; 200 μl of 0.5% SDS for 2 minutes, 200 μl of 10% trichloroacetic acid (TCA) for 2 minutes at room temperature. […] After three washes each of 200 μl PBST, the activated Rho proteins were detected using luminescence detection. Luminescence was measured in a SpectroFluor Plus (Techan Inc.) after addition of 50 μl of lumigen reagent (Lumigen Inc., Catalog # PSA-100).
After extract incubation, the plate was treated with MW+PBS, MW/Dry, MW/8 M urea, methanol, ethanol, 0.5% SDS, 10% TCA or no treatment followed by antibody incubation and luminescence detection. […]

[3] = target: T2, constitutively active recombinant RhoA, glutamine 63 to leucine, histidine tagged (Homo sapiens (Human), UniProt P61586 1-193, limits assumed); test: RhoA G-LISA, ROCK1-GBD on maleimide plate, detection with anti-RhoA clone 384, luminometry
T2 construct: Bought protein; unable to hydrolyse GTP; also called RhoA (63L); R63; not shown: histidine tag
Procedure: as §1, with “The” for “Active Rho protein (typically 7-15 μg total cell lysate or 1-5 ng of constitutively active recombinant protein) were either added directly to the effector bound G-LISA plate (Rac1 and Cdc42 G-LISAs) or diluted with an equal volume of Binding Buffer (20% PEG 8000, Sigma, St. Louis, Mo.) prior to adding to effector bound plates (RhoA G-LISA). The”

[4] = target: active RhoA, sample not stated (Homo sapiens (Human), UniProt P61586 1-190, limits assumed); test: G-LISA with and without TCA Antigen Presenting Buffer
[5] = target: T1, endogenous RhoA of human platelet …; test: RhoA G-LISA on ROCK-GBD maleimide plate, 15 µg GDP or GTPγS loaded platelet extract, Binding Buffer, luminometry
Procedure: as §1

[6] = target: T3, constitutively active recombinant Rac1, glutamine 61 to leucine, histidine tagged (Homo sapiens (Human), UniProt P63000 1-192); test: competition in Rac1: POSH G-LISA, 5 ng Rac1 (61L), POSH-GBD maleimide plate, reference PAK-GBD-GST
[7] = target: T3, constitutively active recombinant Rac1, …; test: competition in Rac1: POSH G-LISA, 5 ng Rac1 (61L), POSH-GBD maleimide plate, ROCK-GST as negative control inhibitor
[8] = target: B1; test: G-LISA on maleimide plates (FIG. 2)
Procedure: as §1, §2

[9] = target: T4, endogenous Rac1 of human platelet extract loaded with GTPγS (human, UniProt P63000 1-189); test: Rac1 G-LISA, PAK-GBD-GST on glutathione plate, loaded platelet extracts, absorbance 490 nm
Procedure: For RhoA and Rac1 reactions goat anti-mouse secondary at 2 μg/ml is used, for RhoA,B,C reactions donkey anti-chicken secondary at 0.5 μg/ml is used, for Cdc42 reactions goat anti-sheep secondary antibody is used at 0.5 μg/ml. After three washes each of 200 μl PBST the activated Rho proteins are detected using absorbance or luminescence detection as described below.
(§3) Plates were incubated at room temperature for 1 hour. Plates were washed twice in PBS and blocked by addition of 0.1% BSA in PBS pH 7.2 for 1 hour at room temperature.

[10] = target: T3, constitutively active recombinant Rac1, …; test: Rac1 G-LISA, PAK-GBD-GST on glutathione plate, absorbance 490 nm
Procedure: as §1, §3

[11] = target: active Rac1, sample not stated (Homo sapiens (Human), UniProt P63000 1-189); test: G-LISA with and without TCA Antigen Presenting Buffer
[12] = target: T3, constitutively active recombinant Rac1, …; test: competition in Rac1: POSH G-LISA, 5 ng Rac1 (61L), POSH-GBD maleimide plate, PAK-GBD-GST at 0 to 10 µM
[13] = target: T3, constitutively active recombinant Rac1, …; test: Rac1 G-LISA, POSH-GBD on maleimide plate, detection with anti-Rac1 GL06, absorbance 490 nm
Procedure: as §1

[14] = target: T4, endogenous Rac1 of human platelet …; test: Rac1 G-LISA on POSH-GBD maleimide plate, GDP or GTPγS loaded platelet extract, absorbance 490 nm
Procedure: as §1

[15] = target: T3, constitutively active recombinant Rac1, …; test: Rac1 G-LISA on POSH plate with 2 minute Antigen Presenting Buffer (1% TCA), absorbance 490 nm
Procedure: The reactions were incubated for 30 minutes at 4° C. on a microtiter titer plate shaker after which wells were washed once with 200 μl of PBST (PBS pH 7.2, 0.05% Tween-20) and immediately treated with 200 μl of Antigen Presenting Buffer (1% trichloroacetic acid (TCA)) for 2-5 minutes at room temperature. Wells were then washed three times with 200 μl each of PBST and primary Rac1 antibody was added at 1 μg/ml and incubated at room temperature for 45 minutes. Wells were washed three times with 200 μl each of PBST and incubated with anti-mouse secondary antibody for 45 minutes at room temperature. After three washes each of 200 μl PBST, the activated Rho proteins were detected using absorbance detection. Absorbance was measured at OD₄₉₀ in a spectrophotometer (SpectraMax 250, Molecular Devices) after addition of 50 μl of OPD substrate (Sigma Catalog # P9187) for 15 minutes at 37° C. followed by addition of 50 μl of stop buffer (1M sulfuric acid).
Referring to FIG. 5B, lysis buffer only (Blank) or 5 ng of Rac1 (61L) were subjected to Rac1 G-LISA assay as described in the materials and methods except that the assays were performed either with or without Antigen Presenting Buffer treatment (1% TCA or No APB respectively) Rac1 signal was detected by absorbance at 490 nm as described in the materials and methods.

[16] = target: T2, constitutively active recombinant RhoA, …; test: G-LISA with rhotekin-Cys effector-GBD on plate, data not shown

T1 sequence (P61586 1-190 limits assumed): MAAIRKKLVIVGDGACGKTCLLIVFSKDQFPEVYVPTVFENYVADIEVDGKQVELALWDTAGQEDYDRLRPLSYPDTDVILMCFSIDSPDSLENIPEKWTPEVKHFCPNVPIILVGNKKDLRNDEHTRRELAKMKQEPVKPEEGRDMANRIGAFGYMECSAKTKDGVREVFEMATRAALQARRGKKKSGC
T2 sequence (P61586 whole entry Q63L): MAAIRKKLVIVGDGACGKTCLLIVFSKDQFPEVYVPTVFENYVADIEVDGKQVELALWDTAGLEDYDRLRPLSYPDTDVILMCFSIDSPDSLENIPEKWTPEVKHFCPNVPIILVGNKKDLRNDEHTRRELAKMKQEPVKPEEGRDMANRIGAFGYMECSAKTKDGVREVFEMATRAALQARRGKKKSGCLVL
Chain of active RhoA, sample not stated (P61586 1-190 limits assumed): as the sequence (P61586 1-190 limits assumed) above

Binder: B1
- signal fold above background [1]: 5 fold

Binder: B2
- fold signal of GTPγS RhoA over GDP RhoA [2]: ~8 fold
- signal fold above background (buffer only) [3]: 6 fold
- loss of signal in the absence of TCA [4]: > 80%
- fold signal of active (GTPγS) RhoA over inactive (GDP) RhoA [5]: 7 fold

Binder: B3
- fold IC50 against PAK [6]: ~80 fold
- IC50 [7]: 8 µM

Binder: B4
- binding result [8]: binds

Binder: B5
- fold signal of GTPγS (active) over GDP (inactive) loaded platelet extract [9]: 8 fold
- signal fold above background (buffer only) [10]: 8 fold
- loss of signal in the absence of TCA [11]: > 80%
- IC50 [12]: ~0.1 µM

Binder: B6
- signal fold above background [13]: 9 fold
- fold signal of active (GTPγS) Rac1 over inactive (GDP) Rac1 [14]: 30 fold
- signal fold above background [15]: 7 fold
- loss of signal in the absence of TCA [11]: > 80%

Binder: B7
- signal fold above background [16]: 6 fold
